Reference: the supplement of paper PMC6379048
pEC50: −log10 of the molar value.

How the values were obtained:
Assay in all cases: EC50 of free RNA motif oligo competing protein binding to immobilised probe
MEX3D = molecular target: T1, MEX3D (UniProt Q86XN8)
T1 sequence: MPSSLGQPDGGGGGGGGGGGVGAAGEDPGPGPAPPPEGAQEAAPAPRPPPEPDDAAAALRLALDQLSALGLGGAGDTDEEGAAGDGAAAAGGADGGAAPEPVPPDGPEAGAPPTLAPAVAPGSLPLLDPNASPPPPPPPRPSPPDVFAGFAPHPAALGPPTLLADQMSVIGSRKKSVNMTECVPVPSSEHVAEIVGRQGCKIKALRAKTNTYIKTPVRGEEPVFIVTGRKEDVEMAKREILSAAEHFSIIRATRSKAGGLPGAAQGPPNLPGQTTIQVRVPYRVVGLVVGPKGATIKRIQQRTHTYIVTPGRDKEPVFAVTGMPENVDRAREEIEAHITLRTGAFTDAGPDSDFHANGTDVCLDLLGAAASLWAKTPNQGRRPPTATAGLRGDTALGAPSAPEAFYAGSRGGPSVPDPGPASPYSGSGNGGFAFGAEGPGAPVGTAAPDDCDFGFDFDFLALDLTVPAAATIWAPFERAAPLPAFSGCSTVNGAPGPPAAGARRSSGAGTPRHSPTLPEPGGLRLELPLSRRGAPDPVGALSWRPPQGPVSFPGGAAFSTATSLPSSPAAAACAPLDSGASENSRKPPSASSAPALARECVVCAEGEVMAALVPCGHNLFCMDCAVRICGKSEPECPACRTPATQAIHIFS
Procedure, shortened: (§1)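 HEK293-FT lysate (2.5 mg protein/well) was treated with free RNA oligos (0 nM to 30 μM) for 1 h at 4°C, then with the same oligos on NHS-Sepharose beads for 30 min at 4°C. Bound proteins were quantified by label-free LC-MS/MS relative to the control. EC50 came from a four-parameter log-logistic fit, and Kd is EC50 times a protein-dependent depletion factor.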

PLOD1 = molecular target: T2, PLOD1 (UniProt Q02809)
T2 sequence: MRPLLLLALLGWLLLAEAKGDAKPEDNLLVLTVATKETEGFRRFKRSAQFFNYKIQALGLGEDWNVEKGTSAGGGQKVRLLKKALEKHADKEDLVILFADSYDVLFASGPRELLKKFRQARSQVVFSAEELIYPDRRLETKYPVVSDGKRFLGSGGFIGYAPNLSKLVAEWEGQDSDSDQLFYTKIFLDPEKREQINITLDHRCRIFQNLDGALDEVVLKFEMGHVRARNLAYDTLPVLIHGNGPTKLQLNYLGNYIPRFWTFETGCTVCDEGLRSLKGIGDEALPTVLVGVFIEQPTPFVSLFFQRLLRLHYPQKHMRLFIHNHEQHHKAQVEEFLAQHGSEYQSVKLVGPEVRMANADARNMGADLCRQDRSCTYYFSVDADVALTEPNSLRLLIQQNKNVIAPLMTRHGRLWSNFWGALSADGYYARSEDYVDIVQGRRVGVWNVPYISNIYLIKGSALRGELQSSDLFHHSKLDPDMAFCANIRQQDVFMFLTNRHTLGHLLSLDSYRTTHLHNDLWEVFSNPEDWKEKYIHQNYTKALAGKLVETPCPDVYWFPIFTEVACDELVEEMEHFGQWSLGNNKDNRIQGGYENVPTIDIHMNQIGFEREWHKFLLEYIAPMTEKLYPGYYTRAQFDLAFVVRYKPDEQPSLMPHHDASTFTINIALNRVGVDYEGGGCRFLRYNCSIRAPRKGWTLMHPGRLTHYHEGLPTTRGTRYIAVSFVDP
Procedure, shortened: as §1

RPS17 = RPS17 (UniProt P08708)
Procedure, shortened: as §1

U2AF1 = molecular target: T3, U2AF1 (UniProt Q01081)
T3 sequence: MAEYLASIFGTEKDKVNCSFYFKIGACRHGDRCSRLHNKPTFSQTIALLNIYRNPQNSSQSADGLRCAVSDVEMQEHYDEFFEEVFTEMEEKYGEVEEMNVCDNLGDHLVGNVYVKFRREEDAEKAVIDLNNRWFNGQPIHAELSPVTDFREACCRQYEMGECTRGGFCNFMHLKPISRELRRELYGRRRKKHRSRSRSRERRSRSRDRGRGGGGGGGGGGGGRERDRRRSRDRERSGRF
Procedure, shortened: as §1

IFIT5 = molecular target: T4, IFIT5 (UniProt Q13325)
T4 sequence: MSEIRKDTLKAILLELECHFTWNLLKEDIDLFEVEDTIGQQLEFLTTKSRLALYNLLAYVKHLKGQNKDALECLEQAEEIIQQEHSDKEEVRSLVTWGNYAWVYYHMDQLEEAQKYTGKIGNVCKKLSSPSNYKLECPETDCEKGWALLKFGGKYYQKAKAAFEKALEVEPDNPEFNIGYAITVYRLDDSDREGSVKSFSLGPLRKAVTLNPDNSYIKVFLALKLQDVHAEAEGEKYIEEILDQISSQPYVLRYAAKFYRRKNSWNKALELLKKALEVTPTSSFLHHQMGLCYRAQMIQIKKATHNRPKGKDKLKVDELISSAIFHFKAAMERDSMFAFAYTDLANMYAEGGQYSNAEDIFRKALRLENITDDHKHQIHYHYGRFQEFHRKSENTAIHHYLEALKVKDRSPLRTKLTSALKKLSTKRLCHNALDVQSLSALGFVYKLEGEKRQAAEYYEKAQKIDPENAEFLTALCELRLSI
Procedure, shortened: as §1

ERI3 = molecular target: T5, ERI3 (UniProt O43414)
T5 sequence: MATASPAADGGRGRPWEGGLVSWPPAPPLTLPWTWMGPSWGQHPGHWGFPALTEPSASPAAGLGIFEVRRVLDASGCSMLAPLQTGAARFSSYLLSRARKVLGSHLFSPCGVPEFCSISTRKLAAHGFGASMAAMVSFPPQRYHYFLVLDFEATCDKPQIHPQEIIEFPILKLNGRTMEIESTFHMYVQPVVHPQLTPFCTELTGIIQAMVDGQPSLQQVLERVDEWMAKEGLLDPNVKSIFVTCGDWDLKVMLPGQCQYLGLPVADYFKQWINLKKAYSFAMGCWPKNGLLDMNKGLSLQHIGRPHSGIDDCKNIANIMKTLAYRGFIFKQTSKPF
Procedure, shortened: as §1

| Sequence | pEC50 (MEX3D) | pEC50 (PLOD1) | pEC50 (RPS17) | pEC50 (U2AF1) | pEC50 (IFIT5) | pEC50 (ERI3) |
| --- | --- | --- | --- | --- | --- | --- |
| UAUUUAU | 6.15 | 5.17 | – | – | – | – |
| AAUAAA | – | – | 6.89 | 5.84 | 5.92 | 5.70 |
